Patent CN111840217A (BEIJING EASTERN BIOTECH CO LTD, dated 2020)

Target: T1, 人皮肤成纤维细胞(HDF)上的IL-17RA (UniProt Q96F46 33-866, limits assumed)
T1 sequence (looked up): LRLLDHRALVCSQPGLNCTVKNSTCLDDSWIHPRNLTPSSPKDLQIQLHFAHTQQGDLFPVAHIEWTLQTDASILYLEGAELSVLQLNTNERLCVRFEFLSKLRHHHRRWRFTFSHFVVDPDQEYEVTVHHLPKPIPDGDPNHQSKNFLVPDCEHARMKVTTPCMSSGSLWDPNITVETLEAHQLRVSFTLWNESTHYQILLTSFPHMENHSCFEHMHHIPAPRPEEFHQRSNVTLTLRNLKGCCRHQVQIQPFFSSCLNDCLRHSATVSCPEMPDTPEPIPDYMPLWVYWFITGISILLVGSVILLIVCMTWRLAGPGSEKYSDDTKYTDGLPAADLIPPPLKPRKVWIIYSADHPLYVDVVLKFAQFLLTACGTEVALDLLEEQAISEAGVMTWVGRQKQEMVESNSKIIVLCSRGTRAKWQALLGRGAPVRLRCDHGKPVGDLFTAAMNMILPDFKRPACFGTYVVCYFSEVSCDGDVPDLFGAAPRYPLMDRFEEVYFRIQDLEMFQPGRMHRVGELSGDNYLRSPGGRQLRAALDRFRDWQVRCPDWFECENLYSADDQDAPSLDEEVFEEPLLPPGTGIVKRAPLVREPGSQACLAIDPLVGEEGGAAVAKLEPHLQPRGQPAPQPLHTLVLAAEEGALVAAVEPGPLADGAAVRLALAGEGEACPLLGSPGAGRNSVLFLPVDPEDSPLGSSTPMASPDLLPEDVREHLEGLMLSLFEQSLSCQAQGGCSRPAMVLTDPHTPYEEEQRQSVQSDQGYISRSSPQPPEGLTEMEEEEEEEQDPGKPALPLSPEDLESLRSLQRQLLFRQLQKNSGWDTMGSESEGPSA
Assay: cell-based or functional assay

B1: 上市产品Brodalumab的全抗体 (antibody, V domains shown)
VH: QVQLVQSGAEVKKPGASVKVSCKASGYTFTRYGISWVRQAPGQGLEWMGWISTYSGNTNYAQKLQGRVTMTTDTSTSTAYMELRSLRSDDTAVYYCARRQLYFDYWGQGTLVTVSS
VL: EIVMTQSPATLSVSPGERATLSCRASQSVSSNLAWFQQKPGQAPRPLIYDASTRATGVPARFSGSGSGTDFTLTISSLQSEDFAVYYCQQYDNWPLTFGGGTKVEIK
In the case of B1, the “抑制HDF细胞产生IL-6 IC50(ng/ml)” value is reported as 117 ng/mL.

B2: mAb-6全抗体 (antibody, human IgG1, kappa, V domains shown)
VH: QVQLVQSGAEVKKPGASVKVSCKASGYSFTRYGISWVRQAPGQGLEWMGWISTYSGNTNYAKQFKGRVTMTTDTSTSTAYMELRSLRSDDTAVYYCARRVLRLDYWGQGTLVTVSS
VL: EIVMTQSPATLSVSPGERATLSCRASQDISISLGWFQQKPGQAPRPLIYGWNTRATGVPARFSGSGSGTDFTLTISSLQSEDFAVYYCQQYSDPFLTFGGGTKVEIKR
With B2 the “抑制HDF细胞产生IL-6 IC50(ng/ml)” value was 33.4 ng/mL.

B3: mAb-4全抗体 (antibody, human IgG1, kappa, V domains shown)
VH: QVQLVQSGAEVKKPGASVKVSCKASGYAYSNYGISWVRQAPGQGLEWMGWISTYSGNTNYAKKFIGRVTMTTDTSTSTAYMELRSLRSDDTAVYYCARRVLRLDYWGQGTLVTVSS
VL: DIQMTQSPSSLSASVGDRVTITCRASQDIDSSLNWYQQKPGKAPKLLIYAASNRESGVPSRFSGSGSGTDFTLTISSLQPEDFATYYCQQWANMPGTFGQGTKVEIKR
B3 was tested, and the “抑制HDF细胞产生IL-6 IC50(ng/ml)” value was 35.8 ng/mL.

B4: mAb-9全抗体 (antibody, human IgG1, kappa, V domains shown)
VH: QVQLVQSGAEVKKPGASVKVSCKASGYTWTSYGISWVRQAPGQGLEWMGWISTYSGNTNYAKKFLGRVTMTTDTSTSTAYMELRSLRSDDTAVYYCARRVLRLDYWGQGTLVTVSS
VL: DIQMTQSPSSLSASVGDRVTITCRASQSVHTGLNWYQQKPGKAPKLLIYGASNLQSGVPSRFSGSGSGTDFTLTISSLQPEDFATYYCQQFEHNPLTFGQGIKVEIKR
B4 was tested, and the “抑制HDF细胞产生IL-6 IC50(ng/ml)” value was 24.8 ng/mL.

B5: mAb-5全抗体 (antibody, human IgG1, kappa, V domains shown)
VH: QVQLVQSGAEVKKPGASVKVSCKASGFAFTRYGISWVRQAPGQGLEWMGWISTYSGNTNYADQFIGRVTMTTDTSTSTAYMELRSLRSDDTAVYYCARRVLRLDYWGQGTLVTVSS
VL: DIQMTQSPSSLSASVGDRVTITCRASQDIDSSLNWYQQKPGKAPKLLIYAASNRESGVPSRFSGSGSGTDFTLTISSLQPEDFATYYCQQWANMPGTFGQGTKVEIKR
B5 was tested, and the “抑制HDF细胞产生IL-6 IC50(ng/ml)” value was 22.9 ng/mL.

B6: mAb-10全抗体 (antibody, human IgG1, kappa, V domains shown)
VH: QVQLVQSGAEVKKPGASVKVSCKASGYSFSSYGISWVRQAPGQGLEWMGWISTYSGNTNYAKKFKGRVTMTTDTSTSTAYMELRSLRSDDTAVYYCARRVLRLDYWGQGTLVTVSS
VL: DIQMTQSPSSLSASVGDRVTITCRASQSVHTGLNWYQQKPGKAPKLLIYGASNLQSGVPSRFSGSGSGTDFTLTISSLQPEDFATYYCQQFEHNPLTFGQGIKVEIKR
With B6 the “抑制HDF细胞产生IL-6 IC50(ng/ml)” value was 36.4 ng/mL.

B7: mAb-7全抗体 (antibody, human IgG1, kappa, V domains shown)
VH: QVQLVQSGAEVKKPGASVKVSCKASGYTFTSYGISWVRQAPGQGLEWMGWISTYSGNTNYAKNLQGRVTMTTDTSTSTAYMELRSLRSDDTAVYYCARRVLRLDYWGQGTLVTVSS
VL: EIVMTQSPATLSVSPGERATLSCRASQDISISLGWFQQKPGQAPRPLIYGWNTRATGVPARFSGSGSGTDFTLTISSLQSEDFAVYYCQQYSDPFLTFGGGTKVEIKR
B7 was tested, and the “抑制HDF细胞产生IL-6 IC50(ng/ml)” value was 29.7 ng/mL.

B8: mAb-11全抗体 (antibody, human IgG1, kappa, V domains shown)
VH: QVQLVQSGAEVKKPGASVKVSCKASGYAWTRYGISWVRQAPGQGLEWMGWISTYSGNTNYAKKFKGRVTMTTDTSTSTAYMELRSLRSDDTAVYYCARRVLRLDYWGQGTLVTVSS
VL: DIQMTQSPSSLSASVGDRVTITCRASQSVHTGLNWYQQKPGKAPKLLIYGASNLQSGVPSRFSGSGSGTDFTLTISSLQPEDFATYYCQQFEHNPLTFGQGIKVEIKR
B8 was tested, and the “抑制HDF细胞产生IL-6 IC50(ng/ml)” value was 60.8 ng/mL.

B9: mAb-2全抗体 (antibody, human IgG1, kappa, V domains shown)
VH: QVQLVQSGAEVKKPGASVKVSCKASGYAWTRYGISWVRQAPGQGLEWMGWISTYSGNTNYAKKFKGRVTMTTDTSTSTAYMELRSLRSDDTAVYYCARRVLRLDYWGQGTLVTVSS
VL: DIQMTQSPSSLSASVGDRVTITCRASQDIDSSLNWYQQKPGKAPKLLIYAASNRESGVPSRFSGSGSGTDFTLTISSLQPEDFATYYCQQWANMPGTFGQGTKVEIKR
With B9 the “抑制HDF细胞产生IL-6 IC50(ng/ml)” value was 22.7 ng/mL.

B10: mAb-1全抗体 (antibody, human IgG1, kappa, V domains shown)
VH: QVQLVQSGAEVKKPGASVKVSCKASGYSYSNYGISWVRQAPGQGLEWMGWISTYSGNTNYSKKLKGRVTMTTDTSTSTAYMELRSLRSDDTAVYYCARRVLRLDYWGQGTLVTVSS
VL: DIQMTQSPSSLSASVGDRVTITCRASQDIDSSLNWYQQKPGKAPKLLIYAASNRESGVPSRFSGSGSGTDFTLTISSLQPEDFATYYCQQWANMPGTFGQGTKVEIKR
B10 was tested, and the “抑制HDF细胞产生IL-6 IC50(ng/ml)” value was 28.4 ng/mL.

B11: mAb-3全抗体 (antibody, human IgG1, kappa, V domains shown)
VH: QVQLVQSGAEVKKPGASVKVSCKASGYAFSRFGISWVRQAPGQGLEWMGWISTYSGNTNYAKHLLGRVTMTTDTSTSTAYMELRSLRSDDTAVYYCARRFLKFDYWGQGTLVTVSS
VL: DIQMTQSPSSLSASVGDRVTITCRASQDIDSSLNWYQQKPGKAPKLLIYAASNRESGVPSRFSGSGSGTDFTLTISSLQPEDFATYYCQQWANMPGTFGQGTKVEIKR
For B11, the “抑制HDF细胞产生IL-6 IC50(ng/ml)” value was 33.4 ng/mL.

B12: mAb-8全抗体 (antibody, human IgG1, kappa, V domains shown)
VH: QVQLVQSGAEVKKPGASVKVSCKASGYGFASRGISWVRQAPGQGLEWMGWISTYSGNTNYAKKFEGRVTMTTDTSTSTAYMELRSLRSDDTAVYYCARRVLRLDYWGQGTLVTVSS
VL: DIQMTQSPSSLSASVGDRVTITCRASQSVHTGLNWYQQKPGKAPKLLIYGASNLQSGVPSRFSGSGSGTDFTLTISSLQPEDFATYYCQQFEHNPLTFGQGIKVEIKR
With B12 the “抑制HDF细胞产生IL-6 IC50(ng/ml)” value was 13.5 ng/mL.
